Measurements as given in PMC11633110.
Positions count from the first letter of the chain named.

Columns and labels:
Assay in all cases: EMSA
Conditions in all cases: 10 mM Tris-HCl pH 8, 50 mM KCl, 0.5 mM EDTA, 10% glycerol, 0.5 mM DTT, 10 nM DNA, 25°C 25 min; 8% PAGE in 0.5x TBE
[1] = biological target: T1, SydR' C16S (SC) C16S (Sinorhizobium meliloti Rm2011) (UniProt Q92XY2)
T1 sequence: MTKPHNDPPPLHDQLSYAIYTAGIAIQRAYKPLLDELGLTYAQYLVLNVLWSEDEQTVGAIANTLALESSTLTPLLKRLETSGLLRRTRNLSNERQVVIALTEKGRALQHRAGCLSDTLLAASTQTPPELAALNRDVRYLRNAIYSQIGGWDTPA

[2] = biological target: T2, SydR' C16S&C114S (SS) C16S;C114S (Sinorhizobium meliloti Rm2011) (UniProt Q92XY2)
T2 sequence: T1 sequence with C114S

[3] = biological target: T3, SydR' C114S (CS) C114S (Sinorhizobium meliloti Rm2011) (UniProt Q92XY2)
T3 sequence: T1 sequence with S16C, C114S

TCTGGGCTCCTTTGCGCACCAATATAATCAAGATTACCGCGAAAACCAATATCGCGATAAGAGATATGTTGACGAGCAGTTCAATATCTGACAACTTAAATATATCGCGATAACAGTTATCGCTATCAACGAAAGGAAAAAGCC (double strand) [sydR-SMa2023 intergenic region, 144 bp]
binding [1]: binds more weakly | binding [2]: binds more weakly | binding [3]: binds
